# Source: patent publication US20240218057A1 (ROCKEFELLER UNIVERSITY, published 2024)
# B1: C986 (antibody, V domains shown)
# VH: EVQLVQSGAEVKKPGETLKISCKGSGDSFSNYWIGWVRQSPGKGLEWMAIVYPGDSDARYSPSFQGQVTISADKSVTTAYLKWSSLKASDTAIYYCVRGLPVDWYFDLWGRGTLVTVSS
# VL: QSVLTQPPSVSGAPEQRVTISCTGSSSNIGAGHDVHWYQQLPGTAPKLLIYNNNNRPSGVPDRFSGSKSGASASLAISGLQAEDEAEYYCQSYDKSLSVLYVLGTGTKVTV
# B2: C983 (antibody, V domains shown)
# VH: QVQLVESGGGVVRPGRSLRLSCAASGFTFSKYGMHWVRQAPGKGLECVASIAYDGSDDSYADSVKGRFIISRDNSKNTLYLQMNSLRAADTAVYYCAKVLGSYCSASSCHGQRPDYWGQGTLVTVSS
# VL: DIQMTQSPSSLSAYVGDRVTITCQASQDISNHLNWYQQKPGKAPNLLIYDASNLETGVPSRFSGSGSGTDFSFTISSLQPEDIATYYCQQYDNVPPWTFGQGTKVEIK
# B3: C984 (antibody, V domains shown)
# VH: QVQLVQSGTEVKKPGDSVQVSCKTSGYSFTGYYIHWVRQAPGQGLEWMGRINPNSGGTNYAQKFQGRVIMTRDTSITTAFMELTRLRYDDTAVYFCAREPIEGVIGGMIVNYYYMDVWGRGTTVTVSS
# VL: QSALTQPASVSGSPGQSITISCTGTSSDVGGYYYVSWYQQHPGKAPKLMIYDVSSRPSGVSNRFSGSKSGNTASLTISGLQAEDEADYYCSSYTSSNTLVVFGGGTKLTVL
# B4: C985 (antibody, V domains shown)
# VH: QVQLVQSGAEVKKPGASVKVSCKASGYIFTGYYMHWVRQAPGQGLEWMGRINPNSGGSRYAEKFQGRVTMTRDTSIITAFMELRGLKSDDTAVYYCAREPIEAVPAGIIVNYYYMDVWGNGTTVTVSS
# VL: QSALTQPASVSGSPGQSITISCTGTSSDVGGYNYVSWYQQHPGKAPKLMIYDVTSRPSGVSDRFSGSKSGTTASLTISGLQAEDEADYYCSSFTSAFTLVVFGGGTKLTVL
# B5: C838 (antibody, V domains shown)
# VH: EVQLVESGGGLVQPGKSLRLSCTASGFTFEDYAMHWVRQAPGKGLEWVSGINWKSGSRGYADSAKGRFTISGNTAKNTLHLQMNSLRAEDTAFYYCAKAGVRNIAAAGPDLNFDFWGQGTLVTVSS
# VL: EIVLTQSPATLSLSPGERATLSCRASQSVGTYLAWYQHKLGQAPRLLIYDATKRATGIPARFSGSGSGTDFTLTISSLEPEDFAIYYCQQRITFGQGTRLEIK
# notes: IgG; V domains only
# B6: C1038 (antibody, V domains shown)
# VH: QVQLVQSGAEVKKPGASVKVSCKASGYTFTSYYMHWVRQAPGQGLEWMGIINPSGGSTRYAQKFQGRVTMTRDTSTSTVYMELSSLRSEDTAVYYCAREGVGGTSYFDYWGQGTLVTVSS
# VL: SYELTQPPSVSVAPGKTARITCGGNNIGSKSVHWYQQKPGQAPVLVVYDDSDRPSGIPERFSGSNSGNTATLTISRVEAGDEADYYCQVWDSSSDPYVFGTGTKVTVL
# notes: IgG; V domains only
# B7: C1039 (antibody, V domains shown)
# VH: QVQLVQSGAEVKKPGASVKVSCKASGYTFTSHYMHWVRQAPGQGLEWMGIINPRTRYAQMFQGRVSMNRDTSTSTVYMELSSLTSEDTAVYYCAREGLGATAYFDYWGQGTLVTVSS
# VL: SYELTQPPSVSVAPGKTAGITCGGSDIGSKSVHWYQQKPGQAPVLVVYDDSDRPSGIPERFSGSNSGNTATLTISRVEAGDEADYYCQVWDSSSDPYVFGTGTKVSVL
# notes: IgG; V domains only
# B8: C1029 (antibody, V domains shown)
# VH: QVQLVESGGGVVQPGRSLRLSCAASGFTFSSFGMHWVRQAPGKGLEWVAVISYDGSYKDYGDSVKGRFTISRDNSKNTLYLQMNSLRAEDTAVYYCARDSNVDTVMVTWFDYWGRGTLVTVSS
# VL: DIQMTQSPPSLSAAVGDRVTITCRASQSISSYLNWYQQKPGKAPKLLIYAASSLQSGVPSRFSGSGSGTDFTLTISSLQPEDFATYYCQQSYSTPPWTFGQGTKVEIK
# notes: IgG; V domains only
# B9: C1033 (antibody, V domains shown)
# VH: QVQLVQSGAEVKKPGSSVKVSCKASGGTFSRNVISWVRQAPGQGLEWMGGIIPMFGTANYAQKFQGRVTISADESTSTAYMELSSLRSEDTAVYYCAREDFILESAPIRENSYYYYGMDVWGQGTTVTVSS
# VL: EIVLTQSPGTLSLSPGERATLSCRASQSVSSNYLAWYQQKPGQAPRLLIYDASSRATGIPDRFSGSGSGTDFTLTIRRLEPEDFAVYYCQQYGGSPRTFGQGTKVEIK
# notes: IgG; V domains only
# B10: C1035 (antibody, V domains shown)
# VH: EVQLVESGGGLIQPGGSLRLSCAASGLTVSRNYMNWVRQAPGKGLEWVSVMYSGGSTFYADSVKGRFTISRDNSKNTLYLQMNSLRAEDTAVYYCARESYGMDVWGQGTTVTVSS
# VL: EIVLTQSPGTLSLSPGERATLSCRASQSFSSTYLAWYQQKPGQAPRLLIYGASSRATGIPDRFSGSGSGTDFTLTISRLEPEDFAVYYCQQYVTSPWTFGQGTKVEIK
# notes: IgG; V domains only
# B11: C1036 (antibody, V domains shown)
# VH: EVQLVESGGGLIQPGGSLRLSCAASGLIVSRNYMNWVRQVPGKGLEWVSVMYAGGSTFYADSVKGRFTISRDDSKNTLYLQMNSLRPEDTAVYYCARESYGMDVWGQGTTVTVSS
# VL: EIVLTQSPGTLSLSPGERATLSCRASQSISSTYLAWYQQKPGQAPRLLIYGASSRATGIPDRFSGSGSGTDFTLTISRLEPEDFAVYYCQQYVTSPWTFGQGTKVEIK
# notes: IgG; V domains only
# B12: C1041 (antibody, V domains shown)
# VH: QVQLVQSGAEVKKPGASVKVSCKASGYTFSDHYIYWVRQAPGQGLEWMGIINPSAGSTSYAQKFQGRVTMTRDTSTSTVYMELSSLRSEDTAVYYCARDIVFVPATMAMDVWGLGTTVTVSS
# VL: EIVLTQSPATLSLSPGERATLSCRASQSVSRYLAWYQQKPGQAPRLLIYDASNRATGIPARFSGSGSGTDFTLTISSLEPEDFAVYYCQQRSNWLFTFGPGTKVDIK
# notes: IgG; V domains only
# B13: C1042 (antibody, V domains shown)
# VH: QVQLVQSGAEVKKPGASVKVSCKASGYTFSDHYIYWVRQAPGQGLEWMGIINPSGGSTSYAQKFQGRVTMTRDTSTSTVYMELSSLKSEDTAVYYCSRDIVFVPATMAMDVWGQGTTVTVSS
# VL: EIVLTQSPATLSLSPGERATLSCRASQSVSRYLAWYQQKPGQAPRLLIYDASNRATGIPARFSGSGSGTDFTLTISSLEPEDFAVYYCQQRSNWLFTFGPGTKVDIK
# notes: IgG; V domains only
# B14: C1044 (antibody, V domains shown)
# VH: QVQLQESGPGLVKPSQTLSLTCTVSGGSISSGNYYLTWIRQPAGKGLEWIGHIYTSGSTNYNPSLKSRVTISVDTSMNQFSLKLSSVTAADTAVYYCARDIPPTWYFDLWGRGTLVTVSS
# VL: SYELTQPPSVSVAPGKTARITCGGNNIGSKNVHWYQQKPGQAPVLVVYDDSDRPSGIPERFSGSNSGNTATLTISRVEAGDEAGYYCQVWDSTSDHLFWVFGGGTKLTVL
# notes: IgG; V domains only
# B15: C1045 (antibody, V domains shown)
# VH: QVQLQESGPGLVKPSQTLSLTCTVSGDSISSGNYYWSWIRQPAGKGLEWIGHIYTSGSPNYKPSLKSRVTISLDTSKNQFSLKLTSVTAADTAMYYCARDIPSTWYFDLWGRGTLVTVSS
# VL: SYELTQPPSVSVAPGKTARIPCGGTDIGSKNVHWYQQKPGQAPVLAVYDDSDRPSGIPERFSGSNSGSTATLTISRVEAGDEADYYCQVWDSSGDRLSWVFGGGTKLTVL
# notes: IgG; V domains only
# B16: C1031 (antibody, V domains shown)
# VH: QLQLQESGPGLVKPSETLSLTCTVSGGSINTSTYYWGWIRQPPGKGLEWIGNIYYSGITYYNPSLKSRVTISVDTSKNQFSLKLRSVTAADTAVYYCARQHRFGSGSSELLWGQGTLVTVSS
# VL: QSALTQPPSASGSPGQSVTISCTGTSSDVGSYNYVSWYQQHPGKAPKLMIYEVTKRPSGVPDRFSGSKSGNTASLTVSGLQADDEADYYCSSYAGSSNLVFGGGTKLTV
# notes: IgG; V domains only
# B17: C1034 (antibody, V domains shown)
# VH: QLQLQESGPGLVKPSETLSLTCTVSGGSVSSNNHYWGWIRQPPGKGLEWIGSISSSGSTHHNPSLRSRVTISVDTSKNHFSLKLNSVTATDTAVYYCARVDSSGWYTGDVFDVWGQGTMVTVSS
# VL: DIQMTQSPSSLSASVGDRVTITCRASQTINNYLNWYQQKPGKPPKLLIYAAFSLHSGVPSRFSGSRSGTDFTLTISSLQPEDFATYYCQHSYSTMCSFGQGTKLEIK
# notes: IgG; V domains only
# B18: C1028 (antibody, V domains shown)
# VH: QVQLVESGGGVVQPGRSLRLSCADSGFTFSSSGMHWVRQAPGKGLEWVGVISYDGGNKYYADSVKGRFTISRDNSKNTLYLQMNSLRAEDTAVYYCAKDTPGGDDIMTGWGLYGMDVWGQGTTVTVSS
# VL: DIQMTQSPSSLSASVEDRVTITCRASQSISSYLNWYQQKPGKAPKLLIYAAISLQSGVPSRFSGSGSGTEFTLTISSLQPEDFATYYCQQSYTTPWAFGQGTKVEIK
# notes: IgG; V domains only
# B19: C1027 (antibody, V domains shown)
# VH: EVQLVESGGGLVQPGGSLRLSCAASGFIVTTNYMSWVRQAPGKGLEWVSLIYPGGSTFYADSVEGRFTISRDNSKNTLYLQVNSLRVEDTAVYYCARDTFGRGDDHWGQGTLVTVSS
# VL: DIQMTQSPSSLSASVGDRVTITCQASQDINIYLNWYQQRPGKAPKLLIYDASNLQTGVPSRFSGSGSGTDFTITISSLQPEDIATYYCQQYDNLPRSFGQGTKLEI
# notes: IgG; V domains only
# B20: C1032 (antibody, V domains shown)
# VH: EVQLVESGGSLVKPGGSLRLSCVASGLTFNHAWMSWVRQAPGKGLEWVGRIKSKIDGGTTDYAAPVKGRFTISRDDSKSTQYLQMNSLKTEDTAVYYCTTDCFWRLGGTTCYEHDAFDVWGQGTMVTVS
# VL: DIQMTQSPSSLSASVGDRVTITCRASQAIATFLNWYQQKPGKAPKLLIYAASSLQSGVPSRFSGSGSGTDFTLTISSLQPEDFATYYCQQSYNSLHFGGGTKVEIK
# notes: IgG; V domains only
# B21: C950 (antibody, V domains shown)
# VH: QVQLVESGGGLVKPGGSLRLSCAASGFTFSDYCVTWIRQAPGKGLEWLSYSNTNDSSRSYADSVKGRFTISRDNAKNSLYLQMDSLRAEDTAVYYCARRGDGNVPLFHYYYMDVWGKGTTVTVSS
# VL: QSVLTQPPSASGTAGQRVTISCSGGSSNIGSNTVHWYQQLPGTAPKLLIYSNYKRPSGVPDRFSGSKSGASASLAISGLQSEDEAEYYCAAWDDSANGPIFGGGTKLTVL
# notes: IgG; V domains only
# B22: C1026 (antibody, V domains shown)
# VH: QVQLVESGGGVVQPGKSLRLSCAASGFIFSSYSMHWVRQAPGKGLEWVAVVSNDGSGKFYADSVRGRFTIFRDNSKNTLYLQVSSLRAEDTAVYYCARDALTSISVLFDCWGQGTLVTVSS
# VL: DIQMTQSPSSLSASLGDRVTITCRASQSISNYLNWYQQKPGKAPKLLIYGASSLQSGVPSRFSGSGSGTDFTLTISNLQPEDFATYFCQQSYSTPSVTFGGGTKVEIK
# notes: IgG; V domains only
# Biological target: T1, SARS-COV-2 RBD (SARS-COV-2, UniProt P0DTC2 319-539)
# T1 construct: also called WT RBD
# Assay: ELISA, RBD coated on plate
row,Binder,EC50 [ng/mL]
1,B1,3.36
2,B2,2.11
3,B3,2.76
4,B4,3.67

# Biological target: T2, SARS-COV-2 RBD (SARS-COV-2, UniProt P0DTC2 319-539)
# T2 construct: also called WT RBD
# Assay: ELISA, RBD coated
row,Binder,EC50 [ng/mL]
1,B5,3.03
2,B6,2.46
3,B7,2.61
4,B8,2.86
5,B9,3.63
6,B10,2.05
7,B11,1.76
8,B12,3.65
9,B13,4.55
10,B14,3.22
11,B15,2.57
12,B16,8.71
13,B17,2.77
14,B18,3.58
15,B19,2.42
16,B20,2.89
17,B21,2.15
18,B22,2.5
